15 molecules from patent US20240327502A1 (Merck Sharp & Dohme, published 2024) can be followed below.

In assay [1] the target is T1, Processed stabilized hMPV PreF trimer (115BV) (human metapneumovirus, strain B2).
T1 construct: also called Processed hMPV PreF trimer; processed PreF
The assay is described as follows: BLI, ratio to unprocessed PreF trimer.

Another assay has as its target T2, hMPV PostF trimer (human metapneumovirus, strain B2).
T2 construct: also called MPV PostF (dPFv1)
The assay is described as follows: BLI, mAb on anti-human Fc sensor.

In assay [2] the target is T3, Unprocessed hMPV PreF trimer (human metapneumovirus, strain B2).
T3 construct: also called Unprocessed hMPV WT PreF trimer; unprocessed hMPV PreF trimeric antigen
Briefly: BLI, mAb on anti-human Fc sensor.

The target in assay [3] is T1, Processed stabilized hMPV PreF trimer …. The assay is described as follows: BLI, mAb on anti-human Fc sensor.

Changes are numbered by the printed parent chain.

B1: M1A11 (antibody, V domains shown)
VH: QLQLQESGPGLVKPSETLSLTCTVSGDSISSSSFYWGWIRQPPGKGLEWIATIYYTGSTEYNPSLKSRISISVDTSMNQFSLRLRSVTAADTAVYYCARQEGSSWSNWFDPWGQGTLVTVSS
VL: DIQMTQSPSSLSASVGDRVTITCRASQSISTYLNWYQQKPGKAPKLLIYVASSLQSGVPSRFSGSGSGTDFTLTISSLQPEDFATYYCQQGYSIPWTFGHGTKVEIK
notes: IgG; also called MIA11
With B1, the “processed/unprocessed PreF trimer binding ratio” value in assay [1] came to 0.15. For the same molecule, the Octet binding response with hMPV PostF trimer worked out at 0.0143 nm; in assay [2], 0.342 nm; in assay [3] it was 0.0515 nm.

B2: M2B10 (antibody, V domains shown)
VH: QVQLVESGGGVVQPGRSLRLSCAASGFTFSNYPMHWVRQAPGKGLAWVALISYDGRTKYYADSVKGRFTISRDNSMNTVYLQMNSLRAEDTAVYYCAREGLEYLNYWGQGTLVTVSS
VL: EIVLTQSPGTLSLSPGERATLSCRASQSISSNSLAWYQQKPGQAPRLLSYGTSNRATGIPDRFSGSGSGTDFTLTISRLEPEDFAVYYCQQYGSSPLTFGPGTKVDIK
notes: IgG
With B2, the “processed/unprocessed PreF trimer binding ratio” value in assay [1] was determined as 0.13. Further, the Octet binding response with hMPV PostF trimer is -0.0646 nm; in assay [2] it was 0.209 nm; in assay [3] it was 0.0278 nm.

B3: M2E11L (antibody, V domains shown)
VH: QVQLVQSGAIMKKPGSSVKVSCKASGGTFTNFAFSWVRQAPGQGLEWMGGIIPFVGPANYAPQFQGRVTITADESTTTAYMELNSLRSEDTAVYYCARVRGFGETAYFYHYYMDVWGKGTTVTVSS
VL: QTVVTQEPSLSVSPGGTVTLTCGLSSGSVSTSHFPSWYQQIPGQPPRTLIYSTITRSSGVPDRFSGSILGNKATLTITGAQADDECDYYCVLYLGGGIPHWVFGGGTKLTVL
With B3, in assay [1], the “processed/unprocessed PreF trimer binding ratio” value stood at 0.49. Moreover, the Octet binding response in the assay with hMPV PostF trimer amounted to 0.0538 nm; in assay [2] it was 0.332 nm; in assay [3], 0.162 nm.

B4: M4B05 (antibody, V domains shown)
VH: QVQLVQSGPEVRKPGASVIISCKASGYSFISYYIHWVRQAPGQGLEWMGIINPSGGSTEYAQKYQGRLTITRDTSTTTVSMTLSSLRSDDTAVYFCAREQAVGAYDIWGQGTMVTVSS
VL: EIVLTQSPGTLSLSPGERATLSCRAGQLINGNYLAWYQKKPGQAPSLLIYDVSRRAAGVPDRFTGSGSGTDFTLTISRLEPDDFAVYYCQHYGRSPSPTFGGGTKVEIK
notes: IgG
For B4, the “processed/unprocessed PreF trimer binding ratio” value in assay [1] turned out to be 0.19. In addition, the Octet binding response with hMPV PostF trimer was -0.0395 nm; in assay [2] it was 0.281 nm; in assay [3] it was 0.0529 nm.

B5: M2C10 (antibody, V domains shown)
VH: QVQLVESGGGVVQPGRSLRLSCAASGFTFNNYAMHWVRQAPGKGLEWVALISDDGSKKYFADALKGRFTIFRDNSKNTLYLQMNSLRAEDTAVYYCARDPTPLGEYYFDYWGQGTLVTVSS
VL: DIQMTQSPSSLSASVGDRVTITCRASQTISGYLNWYQQKPGKAPNLLIYTASSLESGVPSRFSGSGSETDFTLTISSLQPEDFATYYCQQSYRMPLTFGGGTRVSLK
notes: IgG
With B5, the “processed/unprocessed PreF trimer binding ratio” value in assay [1] came out at 0.25. The Octet binding response with hMPV PostF trimer is -0.0261 nm; in assay [2], 0.382 nm; in assay [3], 0.0939 nm.

B6: M3A07 (antibody, V domains shown)
VH: QVQLVQSGAEVQKPGASVKVSCKASGYTFTRHAIHWVRQAPGQRLEWIGWVHGGNENTKYSQKLQGRVTITRDTSASTAYMELNSLRYEDTAVYYCATAMPGAFNMWGQGTVVTVSS
VL: DIQMTQSPSTLSASVGDRVTITCRASQSISSWVAWYQQKPGKAPKLLIYKAFSLETGVPSRFSGSGSGTEFTLTISSLQPDDCATYYCQQYGSFSEFTFGQGTKLEIK
notes: IgG
As to B6, the “processed/unprocessed PreF trimer binding ratio” value in assay [1] came out at 0.17. The Octet binding response is -0.022 nm with hMPV PostF trimer, 0.324 nm in assay [2] and 0.0536 nm in assay [3].

B7: M2A03 (antibody, V domains shown)
VH: QLQLQESGPGLVKPSETLSLTCSVSGGSISSSSNSWTWIRQPPGKGLEWIATIFYFGSTYYNPSLRSRVAISVDTSENQFSLKLTSVTAADTAVYFCARHILSSSGVSGWLDPWGQGTLVTVSS
VL: SYELTQPPSVSVSPGQTASITCSGEKLGSKYAHWYQQKPGRSPVLVIYQDTKRPSGIPERFSGSNSGSTATLTISGTQAMDEADYYCQAWDSSSFVFGTGTTVTVL
notes: IgG
On to B7, for which, in assay [1], the “processed/unprocessed PreF trimer binding ratio” value was determined as 0.29. Further, the results for the Octet binding response (with hMPV PostF trimer; in assay [2]; in assay [3]) were 0.477 nm, 0.369 nm and 0.109 nm, respectively.

B8: M2F01 (antibody, V domains shown)
VH: QVQLVQSGAEVKKPGASVKVSCKASEDTFTNYYMHWVRQAPGQGLEWMGIINPSGGSTDYAQKFQGRVTMTRDTSTSTVYMELSSLRSEDTAMYYCARQGRTAACDYWGQGTLVTVSS
VL: DIQMTQSPSSVSASVGDRVTITCRASQGIRSWLAWYQQKPGKAPKLLIYAASTLQSGVPSRFSGSGSGTDFTLTISSLQPEDFATYYCQQSNSFSLFTFGPGTRVDIK
notes: IgG
Take B8: the “processed/unprocessed PreF trimer binding ratio” value in assay [1] is 0.22. For the same molecule, the Octet binding response in the assay with hMPV PostF trimer is -0.0326 nm; in assay [2] it was 0.335 nm; in assay [3], 0.0736 nm.

B9: M2E08 (antibody, V domains shown)
VH: EVQLVESGGDLVLPGGSLRLSCEASGFMFSSYAMNWVRQAPGKGLERVSGISGSGGNTYYADSVKGRFTISRDNSKNIVYLQMNSLRAEDTAVYYCAKDLGNDYFYYIDVWGKGTTVMVSS
VL: QSVLTQPPSVSGAPGQRVTISCTGTNFNIGAGYDVQWYQQLPGAAPKLLIHGNTYRPSGVPDRFSGSKSGTSASLAITGLQAEDEADYYCQSYDSSLSMVFGGGTKLTVL
notes: IgG
On to B9, for which the “processed/unprocessed PreF trimer binding ratio” value in assay [1] came out at 0.22. Besides, the values for the Octet binding response (with hMPV PostF trimer; in assay [2]; in assay [3]) were -0.0233 nm, 0.349 nm and 0.0781 nm, respectively.

B10: M2B09 (antibody, V domains shown)
VH: QVQLVQSGPEVKGPGASVRVSCKANGYTFTSYGINWVRQTPGQGLQWMGWISVHTDDTKDVQQFQDRVTMTTDTSTSTVFMELRNLRFDDTAVYYCARDRTDISGRVRDAFDLWGQGTLVTVSS
VL: SYVLTQPPSVSVAPGQTAKITCGGNNIGSKSVHWYRQKPGQAPVLVVYDDSDRPSGIPERFSGSNSGNTATLTISRVEAGDEADYYCHVWDSYSDPNYVFGSGTKVTVL
notes: IgG
In the case of B10, the “processed/unprocessed PreF trimer binding ratio” value in assay [1] turned out to be 0.03. The Octet binding response was -0.0435 nm with hMPV PostF trimer, 0.302 nm in assay [2] and 0.0092 nm in assay [3].

B11: M4F8 (antibody, V domains shown)
VH: QVQLVQSGPEVKKPGASVKISCKASEYTFTNHYLHWVRQAPGQGLEWLGIINPTGGSTYYAGDFQGRVTLTRDASTTTVYMELSSVKSEDTAIYYCARDRGMRYFDYWGQGTLVTVSS
VL: QSVLTQPPSVSGAPGQRVSISCTGISSNIGATYDVHWYQQLPGTAPKLLIYGNNNRPSGVPDRFSGSKSGTSASLAITGLQAEDEAVYYCQSYDSVLSGSVIFGGGTILTVL
notes: IgG
For B11, the “processed/unprocessed PreF trimer binding ratio” value in assay [1] is 0.22. Moreover, the figures for the Octet binding response (with hMPV PostF trimer; in assay [2]; in assay [3]) were 0.0408 nm, 0.271 nm and 0.0584 nm, respectively.

B12: M2E01 (antibody, V domains shown)
VH: QLQLQESGPGLVKPSETLSLTCTVSGGSISSSTYYWGWIRQPPGKGLEWIGTIYYSGSTDYNPSLKSRLTISVDTSKNQFSLRLRSVTAADTAVYYCARLVSPYDQFDYWGQGTLVTVSS
VL: DIQMTQSPSSLSASVGDRVTITCRASQTITTYLSWYLQKPGKAPKLLIYAASSWQSGVPSRFSGSGSGTDFTLTISSLQPEDFATYYCQQSYSTPYTFGQGTKLEIK
notes: IgG
Take B12: the “processed/unprocessed PreF trimer binding ratio” value in assay [1] amounted to 0.31. In addition, the Octet binding response with hMPV PostF trimer is -0.016 nm; in assay [2], 0.408 nm; in assay [3], 0.126 nm.

B13: M2E04 (antibody, V domains shown)
VH: QVQLQESGPGLVKPSEILSLTCTVSRFSINSGYYWGWIRQPPGKGLEWIGCISHAGSIYSNPSLESRVTLSLDTSKNQFSLKLTSVIAADTATYYCAASSNWHNALEYWGQGTLVVVSS
VL: QSVLTQPPSASGTPGQTVTISCSGSRSNMGINWVYWYQQLPGTAPKLVIYRNSQRPSGVPDRFSGSQSGTSASLAISGLRSEDEAVYYCAVWDDSLDGRLFGGGTKLTVL
notes: IgG
As for B13, the “processed/unprocessed PreF trimer binding ratio” value in assay [1] was determined as 0.51. Further, the Octet binding response with hMPV PostF trimer is 0.0702 nm; in assay [2], 0.391 nm; in assay [3], 0.199 nm.

B14: M2E05 (antibody, V domains shown)
VH: QVQLQESGPGLVKPSEILSLTCTVSRYSINSGYYWGWIRQPPGKGLEWVGCVSHAGVTYYNPSLESRVAVSLDTSKNQFSLKMTSVSAADTAMYYCAASSNWHNALEYWGQGTLVAVSS
VL: B13 VL with T17S, R26S, V48L, A85G, V86H, S95V, L96V, D97S
notes: IgG
As to B14, the “processed/unprocessed PreF trimer binding ratio” value in assay [1] is 0.54. Also, the Octet binding response with hMPV PostF trimer was found to be 0.0401 nm; in assay [2], 0.426 nm; in assay [3] it was 0.228 nm.

B15: M4B11 (antibody, V domains shown)
VH: QVQLVQSGTEVQTPGASVKVSCKTSGYIFTGYFMHWVRQAPGQGFEWMGWVNPYSGATTYAQKFQGRVTMTRDTSISTVYMELSRLTSDDTAIYYCAKDTSNSGPDLLEHWGQGTLVIVSS
VL: EIVLTQSPATLSLSPGERATLSCRASQSISNFLVWYQRKPGQAPRLLIFDVSKRATGIPTRFSGSGSGTDFTLTISSLEPEDFAVYYCQQRSNWPPGYTFGQGTKLEIK
notes: IgG
On to B15, for which the “processed/unprocessed PreF trimer binding ratio” value in assay [1] turned out to be 0.18. In addition, the Octet binding response amounted to 0.426 nm with hMPV PostF trimer, 0.273 nm in assay [2] and 0.0489 nm in assay [3].
